Source: article PMC3879539, “Control of KirBac3.1 Potassium Channel Gating at the Interface between Cytoplasmic Domains*” (The Journal of Biological Chemistry, 2013)

Molecular target: the molecule itself
Assay: crystal structure; purified channel in 14 mM HEGA-10, 6 mg/ml; crystallised in 10% glycerol, 90 mM HEPES pH 7, 20% PEG-400, 5% PEG-4000, 2.5% PEG-8000, 10 mM spermidine, 20 °C; space group P4212, one molecule in the asymmetric unit; 2.46 Å

B1: KirBac3.1 S129R/S205L (natural protein, Magnetospirillum magnetotacticum)
chain: MTGGMKPPARKPRILNSDGSSNITRLGLEKRGWLDDHYHDLLTVSWPVFITLITGLYLVTNALFALAYLACGDVIENARPGSFTDAFFFSVQTMATIGYGKLIPIGPLANTLVTLEALCGMLGLAVAARLIYARFTRPTAGVLFSSRMVISDFEGKPTLMMRLANLRIEQIIEADVHLVLVRSEISQEGMVFRRFHDLTLTRSRLPIFSLSWTVMHPIDHHSPIYGETDETLRNSHSEFLVLFTGHHEAFAQNVHARHAYSCDEIIWGGHFVDVFTTLPDGRRALDLGKFHEIAQ
notes: KirBac3.1, inwardly rectifying potassium (Kir) channel homolog from Magnetospirillum magnetotacticum; the final model contains 283 of 301 residues; The tetramer arises from crystallographic symmetry (one molecule in the asymmetric unit, space group P4212); also called S129R/S205L double mutant; S129R/S205L mutant channel; source: size exclusion column, detergent exchanged to HEGA-10
  binding result: binds
